Source: publication doi:10.1101/2021.02.23.432414
Read-outs that look alike come from different tables or passages of the source.

B1: seventeen-kilodalton protein (Skp), trimer (natural protein)
chain: ADKIAIVNMGSLFQQVAQKTGVSNTLENEFKGRASELQRMETDLQAKMKKLQSMKAGSDRTKLEKDVMAQRQTFAQKAQAFEQDRARRSNEERGKLVTRIQTAVKSVANSQDIDLVVDANAVAYNSSDVKDITADVLKQVK

Assays:
[1] = target: fluorescently labelled double-cysteine variant of outer membrane protein X (OmpX_(1,149)), unfolded (UniProt P0A917); test: single-molecule FRET
[2] = target: fluorescently labelled double-cysteine variant of outer membrane protein X (OmpX_(1,149)), unfolded (UniProt P0A917); test: single-molecule FRET; remark: listed apart in the source

Sequence of UniProt P0A917 (P0A917 24-171, change not shown): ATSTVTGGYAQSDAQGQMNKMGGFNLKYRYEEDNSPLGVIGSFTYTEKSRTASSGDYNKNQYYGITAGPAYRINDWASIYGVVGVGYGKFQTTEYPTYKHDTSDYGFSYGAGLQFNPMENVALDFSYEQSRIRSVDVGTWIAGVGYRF

Row | Molecule | c1/2 [1] [nM] | dH [1] [kcal/mol] | percent of uOmpX bound at ~6 uM SurA [1] [%] | c1/2 [2] [nM] | dH [2] [kcal/mol] | percent of uOmpX bound at 2.5 uM Skp3 [2] [%]
1 | survival factor A (SurA) (from UniProt P0ABZ6 21-428) (natural protein) | 407 | -31.5 | 87 | – | – | –
2 | B1 | – | – | – | 359 | -71.2 | 80
